Measured values taken from article PMC9807187.

Biological target: FLAG-tagged METTL3, wild type (UniProt Q8C3P7)
Test: co-IP

Chain of UniProt Q8C3P7 (Q8C3P7 whole entry): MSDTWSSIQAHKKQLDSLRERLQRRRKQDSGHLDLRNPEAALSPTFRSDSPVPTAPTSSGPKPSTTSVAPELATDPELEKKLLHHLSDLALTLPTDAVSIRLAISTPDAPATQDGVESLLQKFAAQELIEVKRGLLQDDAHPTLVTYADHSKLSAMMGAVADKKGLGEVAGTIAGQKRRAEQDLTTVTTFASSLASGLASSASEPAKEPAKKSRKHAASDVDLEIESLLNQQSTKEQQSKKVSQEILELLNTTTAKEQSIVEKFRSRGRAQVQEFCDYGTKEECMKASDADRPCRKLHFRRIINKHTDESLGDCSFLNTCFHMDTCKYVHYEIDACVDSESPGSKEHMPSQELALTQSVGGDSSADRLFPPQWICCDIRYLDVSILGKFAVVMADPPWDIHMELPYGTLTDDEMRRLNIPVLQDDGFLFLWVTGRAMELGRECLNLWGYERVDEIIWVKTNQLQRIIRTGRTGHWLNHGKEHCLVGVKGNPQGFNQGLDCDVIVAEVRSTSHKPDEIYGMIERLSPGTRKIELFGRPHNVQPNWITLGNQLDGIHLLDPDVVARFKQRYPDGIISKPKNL

reduction of binding against wild-type p53: 50%
Substance: HA-p53 25,26,53,54 (p53 L25Q,Q26S,F53Q,F54S mutant) (from UniProt P02340 1-390) (natural protein)
